Laboratory results as given in the supplement of paper PMC7877785.
± gives the uncertainty stated by the source.

Assay: self-splicing fitness, log relative to wild type (ln ratio); higher = more splicing; Tetrahymena group I intron in knt gene, E. coli kanamycin selection, DiMSum; sequences stand for … in CUCUCU…GGAGGGAAAAGUUAUCAGGCAUGCACCUGGUAGCUAGUCUUUAAACCAAUAGAUUGCAUCGGUUUAAAAGGCAAGACCGUCAAAUUGCGGGAAAGGGGUCAACAGCCGUUCAGUACCAAGUCUCAGGGGAAACUUUGAGAUGGCCUUGCAAAGGGUAUGGUAAUAAGCUGACGGACAUGGUCCUAACCACGCAGCCAAGUCCUAAGUCAACAGAUCUUCUGUUGAUAUGGAUGCAGUUCACAGACUAAAUGUCGGUCGGGGAAGAUGUAUUCUUCUCAUAAGAUAUAGUCGGACCUCUCCUUAAUGGGAGCUAGCGGAUGAAGUGAUGCAACACUGGAGCCGCUGGGAACUAAUUUGUAUGCGAAAGUAUAUUGAUUAGUUUUGGAGUACUCGUGGUCG
How it was run: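 Colonies from six replicate transformations of E. coli BL21(DE3) were pooled and amplicon-sequenced on an Illumina HiSeq 2500. The library placed an intron with all eight P1ex-region nucleotides randomised inside the knt kanamycin-resistance gene on pET-22b(+), and cells grew overnight at 37°C or 30°C on LB agar with or without 25 μg/mL kanamycin (plus 100 μg/mL carbenicillin, 50 μM IPTG, 0.2% rhamnose). Fitness is the DiMSum error-weighted combination of wild-type-normalised replicate fold changes, kanamycin versus none.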

Row | Sequence | self-splicing fitness (ln) (30 °C) | self-splicing fitness (ln) (37 °C)
1 | CACCAGCAAUAUUACGUAUA | -4.42 ± 0.24 | -2.33 ± 0.18
2 | CACCAGCAAUAUUACGUCAC | -2.9 ± 0.15 | -2.9 ± 0.3
3 | CACCAGCAAUAUUACGUCGC | -3.1 ± 0.12 | -2.28 ± 0.17
4 | CACCAGCAAUAUUACGUGCA | -4.11 ± 0.17 | -2.56 ± 0.15
5 | CACCAGCAAUAUUACGUUCA | -3.07 ± 0.16 | -2.15 ± 0.16
6 | CACGAGCAAUAUUACGAUCA | -2.68 ± 0.22 | -2.11 ± 0.19
7 | CACGAGCAAUAUUACGAUGA | -3.21 ± 0.24 | -2.17 ± 0.23
8 | CACGAGCAAUAUUACGAUGC | -3.47 ± 0.37 | -2.74 ± 0.29
9 | CACGAGCAAUAUUACGCAAG | -2.4 ± 0.19 | -0.867 ± 0.15
10 | CACGAGCAAUAUUACGCACU | -2.87 ± 0.39 | -1.61 ± 0.23
11 | CACGAGCAAUAUUACGCCGC | -2.93 ± 0.35 | -1.33 ± 0.48
12 | CACGAGCAAUAUUACGCGUC | -3.19 ± 0.32 | -1.52 ± 0.19
13 | CACGAGCAAUAUUACGCUCU | -2.57 ± 0.18 | -2.93 ± 0.28
14 | CACGAGCAAUAUUACGGAGA | -3.38 ± 0.2 | -2.85 ± 0.25
15 | CACGAGCAAUAUUACGGCAC | -2.97 ± 0.23 | -2.43 ± 0.25
16 | CACGAGCAAUAUUACGGUAA | – | -2.37 ± 0.27
17 | CACGAGCAAUAUUACGGUCU | -3.44 ± 0.19 | -1.73 ± 0.16
18 | CACGAGCAAUAUUACGUAAA | – | -1.83 ± 0.21
19 | CACGAGCAAUAUUACGUACA | -3.75 ± 0.37 | -2.49 ± 0.24
20 | CACGAGCAAUAUUACGUACC | -2.54 ± 0.5 | –
21 | CACGAGCAAUAUUACGUCAA | -2.34 ± 0.17 | -2.13 ± 0.23
22 | CACGAGCAAUAUUACGUCUA | -1.3 ± 0.32 | -1.55 ± 0.27
23 | CACGAGCAAUAUUACGUUAU | -3.4 ± 0.19 | -3.62 ± 0.31
24 | CACGAGCAAUAUUACGUUCU | -3.56 ± 0.2 | -2.02 ± 0.26
25 | CACUAGCAAUAUUACGAAAG | -1.23 ± 0.062 | -0.136 ± 0.084
26 | CACUAGCAAUAUUACGACCU | -2.03 ± 0.28 | -1.6 ± 0.18

Row | Sequence | self-splicing fitness (ln) (30 °C) | self-splicing fitness (ln) (37 °C)
27 | CACUAGCAAUAUUACGACGC | -2.52 ± 0.12 | -1.02 ± 0.13
28 | CACUAGCAAUAUUACGACGU | -2.27 ± 0.14 | -1.8 ± 0.11
29 | CACUAGCAAUAUUACGAGAU | -3.87 ± 0.39 | -2.97 ± 0.2
30 | CACUAGCAAUAUUACGAUCG | 0.531 ± 0.067 | 0.717 ± 0.071
31 | CACUAGCAAUAUUACGAUUG | -0.641 ± 0.07 | -0.457 ± 0.081
32 | CACUAGCAAUAUUACGCAAA | -2.95 ± 0.21 | -2.46 ± 0.27
33 | CACUAGCAAUAUUACGCCAG | -1.1 ± 0.08 | -0.0668 ± 0.11
34 | CACUAGCAAUAUUACGCCCG | 0.71 ± 0.13 | 0.619 ± 0.12
35 | CACUAGCAAUAUUACGCCUU | -1.4 ± 0.27 | -1.19 ± 0.16
36 | CACUAGCAAUAUUACGCGGU | -4.59 ± 0.26 | -3.62 ± 0.28
37 | CACUAGCAAUAUUACGCGUG | -3.99 ± 0.21 | -3.12 ± 0.25
38 | CACUAGCAAUAUUACGCUGG | -4.08 ± 0.37 | -1.87 ± 0.22
39 | CACUAGCAAUAUUACGGAAU | -4 ± 0.27 | -2.3 ± 0.32
40 | CACUAGCAAUAUUACGGACC | – | -1.8 ± 0.24
41 | CACUAGCAAUAUUACGGACG | 0.105 ± 0.064 | 0.332 ± 0.08
42 | CACUAGCAAUAUUACGGGAG | -1.54 ± 0.073 | -0.152 ± 0.076
43 | CACUAGCAAUAUUACGGGCC | -4.05 ± 0.25 | -2.56 ± 0.22
44 | CACUAGCAAUAUUACGUACG | -0.239 ± 0.071 | 0.494 ± 0.083
45 | CACUAGCAAUAUUACGUCUA | -2.25 ± 0.23 | -2.52 ± 0.29
46 | CACUAGCAAUAUUACGUGCC | -4.04 ± 0.46 | -2.17 ± 0.29
47 | CACUAGCAAUAUUACGUUAA | -2.77 ± 0.2 | -2.11 ± 0.23
48 | CACUAGCAAUAUUACGUUAG | -3.34 ± 0.14 | -2.92 ± 0.17
49 | CACUAGCAAUAUUACGUUCC | -3.39 ± 0.17 | -1.65 ± 0.17
50 | CAGAAGCAAUAUUACGAAGC | -2.87 ± 0.31 | –
51 | CAGAAGCAAUAUUACGAAUC | – | -1.93 ± 0.38
52 | CAGAAGCAAUAUUACGACGU | -1.53 ± 0.12 | -0.618 ± 0.12

Row | Sequence | self-splicing fitness (ln) (30 °C) | self-splicing fitness (ln) (37 °C)
53 | CAGAAGCAAUAUUACGACUU | -0.506 ± 0.078 | 0.0901 ± 0.079
54 | CAGAAGCAAUAUUACGAGCC | -3.03 ± 0.47 | -1.82 ± 0.27
55 | CAGAAGCAAUAUUACGAGCU | -2.12 ± 0.18 | -1.77 ± 0.2
56 | CAGAAGCAAUAUUACGAGGC | – | -2.83 ± 0.4
57 | CAGAAGCAAUAUUACGAUCG | -0.236 ± 0.078 | 0.167 ± 0.1
58 | CAGAAGCAAUAUUACGCAGA | -2.59 ± 0.22 | -2.55 ± 0.28
59 | CAGAAGCAAUAUUACGCCCG | -0.995 ± 0.15 | 0.147 ± 0.16
60 | CAGAAGCAAUAUUACGCUCU | -4.2 ± 0.24 | -2.41 ± 0.17
61 | CAGAAGCAAUAUUACGGAAU | -3.93 ± 0.2 | -1.94 ± 0.18
62 | CAGAAGCAAUAUUACGGAGA | – | -2.16 ± 0.24
63 | CAGAAGCAAUAUUACGGCCU | -1.29 ± 0.13 | -1.82 ± 0.23
64 | CAGAAGCAAUAUUACGGGAC | – | -1.25 ± 0.35
65 | CAGAAGCAAUAUUACGGUAA | -3.62 ± 0.25 | -2.49 ± 0.18
66 | CAGAAGCAAUAUUACGGUCA | -1.54 ± 0.13 | -1.15 ± 0.097
67 | CAGAAGCAAUAUUACGGUGC | -4.16 ± 0.24 | -3.04 ± 0.18
68 | CAGAAGCAAUAUUACGGUUC | -3.71 ± 0.19 | -2.49 ± 0.2
69 | CAGAAGCAAUAUUACGUCAG | -1.15 ± 0.056 | -0.204 ± 0.078
70 | CAGAAGCAAUAUUACGUCUA | -0.102 ± 0.07 | 0.782 ± 0.11
71 | CAGAAGCAAUAUUACGUUCG | -0.642 ± 0.051 | 0.234 ± 0.064
72 | CAGAAGCAAUAUUACGUUGG | -2.15 ± 0.11 | -0.698 ± 0.1
73 | CAGAAGCAAUAUUACGUUUG | -3.42 ± 0.19 | -2.54 ± 0.2
74 | CAGCAGCAAUAUUACGAGAC | -3.94 ± 0.36 | -2.21 ± 0.26
75 | CAGCAGCAAUAUUACGAGGU | -2.8 ± 0.16 | -2.42 ± 0.21
76 | CAGCAGCAAUAUUACGAUAA | -3.08 ± 0.14 | -2.24 ± 0.13
77 | CAGCAGCAAUAUUACGAUCG | -0.0679 ± 0.074 | 0.219 ± 0.094
78 | CAGCAGCAAUAUUACGAUUU | -3.59 ± 0.17 | -1.91 ± 0.15
